From patent US20220153819A1

Target: human GITR on Jurkat/hGITR/hCD20 cells (human) (UniProt Q9Y5U5)
Assay: flow cytometry on Jurkat/hGITR/hCD20 cells

Sequence of human GITR on Jurkat/hGITR/hCD20 cells (human) (Q9Y5U5 26-241): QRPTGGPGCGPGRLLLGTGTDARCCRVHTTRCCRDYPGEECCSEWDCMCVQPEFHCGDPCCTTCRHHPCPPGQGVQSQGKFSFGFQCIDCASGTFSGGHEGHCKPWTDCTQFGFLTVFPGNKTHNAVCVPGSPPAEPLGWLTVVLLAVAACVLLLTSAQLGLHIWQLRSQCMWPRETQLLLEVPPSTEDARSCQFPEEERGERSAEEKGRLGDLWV

Substance: REGN1932, IgG1 isotype control antibody
- Maximum MFI: 39900 MFI
